Key:
[1] = target: T1, Recombinant oncogenic HRAS (G12V; residues 1-166) (human, UniProt P01112 1-166); assay: SPR (BIAcore 2000); HRASG12V-GppNp immobilised on CM5 chip, purified scFv as analyte; BIAcore, purified bacterial scFv in vitro; weak micromolar binding
T1 construct: range 1-166; ELISA and BIAcore: purified from bacteria and loaded with GppNp, a non-hydrolysable GTP analogue; Mammalian two-hybrid: codons 1-166 fused C-terminal to the GAL4 DBD (pM1-RASG12V); Yeast two-hybrid: truncated HRASG12V fused to the LexA DBD (pBTM116-RASG12V); The DBD parts are not written into the chain; also called HaRASG12V; Ha-RASG12V

[2] = target: T2, LexA DBD (made from the empty pBTM 116 vector) (UniProt P0A7C2 1-202, limits assumed); assay: yeast two-hybrid (His growth, β-gal); data not shown
T2 construct: domain: LexA DBD; Bait-only control in the yeast two-hybrid assay
T2 sequence (looked up): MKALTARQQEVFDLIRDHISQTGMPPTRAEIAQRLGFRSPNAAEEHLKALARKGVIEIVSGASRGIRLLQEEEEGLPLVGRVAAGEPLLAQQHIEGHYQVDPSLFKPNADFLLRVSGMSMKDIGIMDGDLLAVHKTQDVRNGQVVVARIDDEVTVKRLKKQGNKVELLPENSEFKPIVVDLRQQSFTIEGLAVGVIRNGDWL

[3] = target: T1, Recombinant oncogenic HRAS (G12V; …); assay: surface plasmon resonance (BIAcore 2000), HRASG12V-GppNp immobilised at about 1500 RU, purified scFv injected

B1: anti-RAS scFv I21 (scFv)
scFv: EVQLLESGGGLVQPGGSLRLSCAASGFTFSSYAMSWVRQAPGKGLEWVSTISYGGSNTNYADSVKARFTISRDNSKNTLYLQMNSLRAEDTAVYYCAKGNNAFDYWGQGTLVTVSSGGGGSGGGGSGGGGSTDIQMTQSPSSLSASVGDRVTITCRASQSISSYLNWYQQKPGKAPKLLIYNASALQSGVPSRFSGSGSGTDFTLTISSLQPEDFATYYCQQYTSTPRTFGQGTKVEIKR
notes: also called ICAb I21
[1]
  Kd: 2160 nM
[2]
  binding result: no binding
[3]
  Kd: 1310 nM
  koff: 0.0212 s⁻¹
  kon: 16700 M⁻¹ s⁻¹

Source: US20050276800A1 (MEDICAL RESEARCH COUNCIL, published 2005)
